Values belong to the binder of their own block, whether it stands above or below them.
Legend:
[1] = molecular target: PD-L1 on cells (UniProt Q9NZQ7 19-290, limits assumed); assay: cell-based or functional assay
[2] = molecular target: T1, Human PD-L1 (human, UniProt Q9NZQ7 19-239); assay: SPR, PD-L1 amine-coupled, variant as analyte, 1:1 model; third of three variants in the merged cell (G1 4-1 PD-1)
T1 construct: Amine-coupled to a CM5 chip for SPR; also called recombinant human PD-L1

[3] = molecular target: Human CD3 (recombinant) (human); assay: SPR, CD3 amine-coupled, variant as analyte, 1:1 model
Chain of Human CD3 (recombinant) (human) (chain, as listed by the source): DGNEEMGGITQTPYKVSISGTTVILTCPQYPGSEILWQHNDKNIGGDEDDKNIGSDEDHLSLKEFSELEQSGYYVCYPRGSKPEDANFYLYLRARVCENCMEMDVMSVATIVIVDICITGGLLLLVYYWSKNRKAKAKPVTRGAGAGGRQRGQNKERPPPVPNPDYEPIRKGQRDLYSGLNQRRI

[4] = molecular target: T2, Human PD-L2 (human, UniProt Q9BQ51 20-219); assay: SPR, PD-L2 amine-coupled, variant as analyte, 1:1 model
T2 construct: Amine-coupled to a CM5 chip for SPR; also called recombinant PD-L2
T2 sequence (looked up): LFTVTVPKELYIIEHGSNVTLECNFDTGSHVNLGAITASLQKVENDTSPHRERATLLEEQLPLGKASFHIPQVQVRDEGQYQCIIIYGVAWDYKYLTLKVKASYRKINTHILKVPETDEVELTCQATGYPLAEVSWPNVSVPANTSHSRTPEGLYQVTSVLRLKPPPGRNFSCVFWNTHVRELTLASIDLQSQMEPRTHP

[5] = molecular target: T1, Human PD-L1; assay: SPR, PD-L1 amine-coupled, variant as analyte, 1:1 model
[6] = molecular target: T1, Human PD-L1; assay: as above; remark: listed apart in the source
[7] = molecular target: T1, Human PD-L1; assay: SPR, PD-L1 amine-coupled, variant as analyte
[8] = molecular target: T3, Mouse CLDN18 A2.1 (mouse, UniProt P56857 10-264); assay: FACS on transfected HEK293-6E cells, 4 parameter logistic fit
T3 construct: On transfected HEK293-6E cells; also called Mouse CLDN18 2.1; mouse CLDN18.2 ortholog
T3 chain: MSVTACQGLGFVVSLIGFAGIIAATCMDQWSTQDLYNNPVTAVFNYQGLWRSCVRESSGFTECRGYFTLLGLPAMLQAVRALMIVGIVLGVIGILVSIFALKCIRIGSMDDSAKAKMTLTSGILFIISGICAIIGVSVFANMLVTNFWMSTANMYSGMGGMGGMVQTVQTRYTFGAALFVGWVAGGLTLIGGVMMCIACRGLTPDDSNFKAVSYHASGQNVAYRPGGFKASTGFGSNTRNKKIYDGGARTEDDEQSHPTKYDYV

[9] = molecular target: T4, Cynomolgus monkey CLDN18 (cynomolgus monkey); assay: as above
T4 construct: On transfected HEK293-6E cells; also called Cyno CLDN18; cynomologus monkey CLDN18.2 ortholog
T4 chain: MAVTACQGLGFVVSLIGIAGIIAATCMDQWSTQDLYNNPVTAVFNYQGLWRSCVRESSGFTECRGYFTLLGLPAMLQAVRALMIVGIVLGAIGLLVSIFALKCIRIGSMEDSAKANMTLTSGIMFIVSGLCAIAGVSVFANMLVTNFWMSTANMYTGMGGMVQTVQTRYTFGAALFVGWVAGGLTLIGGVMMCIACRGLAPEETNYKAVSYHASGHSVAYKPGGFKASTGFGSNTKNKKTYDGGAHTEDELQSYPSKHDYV

[10] = molecular target: T5, Human CLDN18.2 (human); assay: as above
T5 construct: On transfected HEK293-6E cells; also called Claudin18.2

[11] = molecular target: T6, Human CLDN18.1 (human, UniProt P56856 1-261); assay: flow cytometry, purified construct on transfected HEK293-6E cells
T6 construct: On transfected HEK293-6E cells
T6 sequence (P56856 whole entry): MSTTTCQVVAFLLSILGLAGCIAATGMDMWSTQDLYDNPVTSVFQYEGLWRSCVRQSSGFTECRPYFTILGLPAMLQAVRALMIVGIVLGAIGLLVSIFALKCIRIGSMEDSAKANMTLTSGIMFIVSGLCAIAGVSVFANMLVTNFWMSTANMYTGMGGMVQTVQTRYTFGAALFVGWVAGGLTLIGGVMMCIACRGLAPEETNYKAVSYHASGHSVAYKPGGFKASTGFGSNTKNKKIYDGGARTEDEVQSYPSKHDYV

T1 sequence (Q9NZQ7 19-239 limits assumed): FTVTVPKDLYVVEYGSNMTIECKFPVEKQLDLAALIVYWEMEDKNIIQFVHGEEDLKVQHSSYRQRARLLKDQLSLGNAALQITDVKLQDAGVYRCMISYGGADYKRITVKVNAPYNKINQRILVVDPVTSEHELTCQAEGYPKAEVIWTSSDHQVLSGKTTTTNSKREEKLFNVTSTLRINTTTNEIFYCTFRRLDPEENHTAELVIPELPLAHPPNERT
Chain of PD-L1 on cells (Q9NZQ7 19-290 limits assumed): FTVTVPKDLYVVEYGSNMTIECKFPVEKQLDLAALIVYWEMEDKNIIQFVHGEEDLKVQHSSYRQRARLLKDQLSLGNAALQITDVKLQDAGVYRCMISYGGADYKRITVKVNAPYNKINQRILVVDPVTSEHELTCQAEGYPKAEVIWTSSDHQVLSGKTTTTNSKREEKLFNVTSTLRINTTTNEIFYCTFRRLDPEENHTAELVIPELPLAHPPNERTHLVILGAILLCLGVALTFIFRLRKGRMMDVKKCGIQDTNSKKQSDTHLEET

- EC50 (read off the curve); hybrid PD-1/PD-L1 reporter gene assay, delta RLU, PD-1+ Jurkat T cells with SNU-620 cells, top left graph; composite signal of CD3 engagement and PD-1:PD-L1 blockade [1]: ~0.5 nM
- Kd [2]: 280 nM
- Kd [3]: 3.5 nM
B1: v38737 (other)
heavy 1: EVQLVESGGGLVQPGGSLRLSCAASGVTFNYYGMSWIRQAPGKGLEWVASITSSGGRIYYPDSVKGRFTISRENTQKTLYLQMNSLRAEDTAVYYCTLDGRDGWVAYWGQGTLVTVSSASTKGPSVFPLAPSSKSTSGGTAALGCLVKDYFPEPVTVSWNSGALTSGVHTFPAVLQSSGLYSLSSVVTVPSSSLGTQTYICNVNHKPSNTKVDKKVEPKSCDKTHTCPPCPAPEAAGGPSVFLFPPKPKDTLMISRTPEVTCVVVSVSHEDPEVKFNWYVDGVEVHNAKTKPREEQYNSTYRVVSVLTVLHQDWLNGKEYKCKVSNKALPAPIEKTISKAKGQPREPQVYVYPPSRDELTKNQVSLTCLVKGFYPSDIAVEWESNGQPENNYKTTPPVLDSDGSFALVSKLTVDKSRWQQGNVFSCSVMHEALHNHYTQKSLSLSPGGGGGSGDRPWNPPTFSPALLVVTEGDNATFTCSFSNTSESFRLVWHRESPGYETDTLASFPEDRSTPLPDARFRVTQLPNGRDFHMSVVRARRNDSGTYVCGAIAFHPVIQIKESLRAELRVTE
light: NFMLTQPHSVSESPGKTVTISCKRNTGNIGSNYVNWYQQHEGSSPTTIIYRNDKRPDGVSDRFSGSIDRSSKSASLTISNLKTEDEADYFCQSYSSGFIFGGGTKLTVLGQPKAAPSVTLFPPSSEELQANKATLVCLISDFYPGAVTVAWKADSSPVKAGVETTTPSKQSNNKYAASSYLSLTPEQWKSHRSYSCQVTHEGSTVEKTVAPTECS
heavy 2: QVQLVESGGGLVQPGGSLRLSCSVSGIDLSSNPMIWVRQAPGKGLQYIGIIDTDGSTYYADWAKGRFTISKDSTTVYLQINSPRAEDTAVYYCARRLHGSSNGYYDDLWGQGTLVTVSSGGGGSGGGGSGGGGSGGGGSDGQMTQSPSSVSASVGDRVTITCQASQSIYSYLSWYQQKPGQRPKLLIYKASTLASGVPSRFSGSGSGTDFTLTISSVQPEDFATYYCQQGYTVTNVDKNTFGGGTKVEIKAAEPKSSDKTHTCPPCPAPEAAGGPSVFLFPPKPKDTLMISRTPEVTCVVVSVSHEDPEVKFNWYVDGVEVHNAKTKPREEQYNSTYRVVSVLTVLHQDWLNGKEYKCKVSNKALPAPIEKTISKAKGQPREPQVYVLPPSRDELTKNQVSLLCLVKGFYPSDIAVEWESNGQPENNYLTWPPVLDSDGSFFLYSKLTVDKSRWQQGNVFSCSVMHEALHNHYTQKSLSLSPG

- Kd [4]: 230 nM
- Kd [5]: 310 nM
- Kd [3]: 39 nM
- Kd [6]: 110 nM
B2: v38739 (other)
heavy 1: EVQLVESGGGLVQPGGSLRLSCAASGVTFNYYGMSWIRQAPGKGLEWVASITSSGGRIYYPDSVKGRFTISRENTQKTLYLQMNSLRAEDTAVYYCTLDGRDGWVAYWGQGTLVTVSSASTKGPSVFPLAPSSKSTSGGTAALGCLVKDYFPEPVTVSWNSGALTSGVHTFPAVLQSSGLYSLSSVVTVPSSSLGTQTYICNVNHKPSNTKVDKKVEPKSCDKTHTCPPCPAPEAAGGPSVFLFPPKPKDTLMISRTPEVTCVVVSVSHEDPEVKFNWYVDGVEVHNAKTKPREEQYNSTYRVVSVLTVLHQDWLNGKEYKCKVSNKALPAPIEKTISKAKGQPREPQVYVYPPSRDELTKNQVSLTCLVKGFYPSDIAVEWESNGQPENNYKTTPPVLDSDGSFALVSKLTVDKSRWQQGNVFSCSVMHEALHNHYTQKSLSLSPGGGGGSGDRPWNPPTFSPALLVVTEGDNATFTCSFSNTSESFVLNWYRMSPSNQTDKLAAFPEDRSQPGQDARFRVTQLPNGRDFHMSVVRARRNDSGTYLCGAISLAPKLQIKESLRAELRVTE
light: NFMLTQPHSVSESPGKTVTISCKRNTGNIGSNYVNWYQQHEGSSPTTIIYRNDKRPDGVSDRFSGSIDRSSKSASLTISNLKTEDEADYFCQSYSSGFIFGGGTKLTVLGQPKAAPSVTLFPPSSEELQANKATLVCLISDFYPGAVTVAWKADSSPVKAGVETTTPSKQSNNKYAASSYLSLTPEQWKSHRSYSCQVTHEGSTVEKTVAPTECS
heavy 2: QVQLVESGGGLVQPGGSLRLSCSVSGIDLSSNPMIWVRQAPGKGLQYIGIIDTDGSTYYADWAKGRFTISKDSTTVYLQINSPRAEDTAVYYCARRLHGSSNGYYDDLWGQGTLVTVSSGGGGSGGGGSGGGGSGGGGSDGQMTQSPSSVSASVGDRVTITCQASQSIYSYLSWYQQKPGQRPKLLIYKASTLASGVPSRFSGSGSGTDFTLTISSVQPEDFATYYCQQGYTVTNVDKNTFGGGTKVEIKAAEPKSSDKTHTCPPCPAPEAAGGPSVFLFPPKPKDTLMISRTPEVTCVVVSVSHEDPEVKFNWYVDGVEVHNAKTKPREEQYNSTYRVVSVLTVLHQDWLNGKEYKCKVSNKALPAPIEKTISKAKGQPREPQVYVLPPSRDELTKNQVSLLCLVKGFYPSDIAVEWESNGQPENNYLTWPPVLDSDGSFFLYSKLTVDKSRWQQGNVFSCSVMHEALHNHYTQKSLSLSPG

- Kd [3]: 77 nM
- binding result [7]: no binding
B3: v38426 (other)
heavy 1: EVQLVESGGGLVQPGGSLRLSCAASGVTFNYYGMSWIRQAPGKGLEWVASITSSGGRIYYPDSVKGRFTISRENTQKTLYLQMNSLRAEDTAVYYCTLDGRDGWVAYWGQGTLVTVSSASTKGPSVFPLAPSSKSTSGGTAALGCLVKDYFPEPVTVSWNSGALTSGVHTFPAVLQSSGLYSLSSVVTVPSSSLGTQTYICNVNHKPSNTKVDKKVEPKSCDKTHTCPPCPAPEAAGGPSVFLFPPKPKDTLMISRTPEVTCVVVSVSHEDPEVKFNWYVDGVEVHNAKTKPREEQYNSTYRVVSVLTVLHQDWLNGKEYKCKVSNKALPAPIEKTISKAKGQPREPQVYVYPPSRDELTKNQVSLTCLVKGFYPSDIAVEWESNGQPENNYKTTPPVLDSDGSFALVSKLTVDKSRWQQGNVFSCSVMHEALHNHYTQKSLSLSPGGGGGSGQVQLVESGGGLVQPGGSLRLSCSVSGIDLSSNPMIWVRQAPGKGLQYIGIIDTDGSTYYADWAKGRFTISKDSTTVYLQINSPRAEDTAVYYCARRLHGSSNGYYDDLWGQGTLVTVSSGGGGSGGGGSGGGGSGGGGSDGQMTQSPSSVSASVGDRVTITCQASQSIYSYLSWYQQKPGQRPKLLIYKASTLASGVPSRFSGSGSGTDFTLTISSVQPEDFATYYCQQGYTVTNVDKNTFGGGTKVEIK
light: NPPTFSPALLVVTEGDNATFTCSFSNTSESFVLNWYRMSPSNQTDALAAFPEDRSQPGQDARFRVTQLPNGRDFHMSVVRARRNDSGTYLCGAASLAPKAQIKESLRAELRVTEGGGGSGNFMLTQPHSVSESPGKTVTISCKRNTGNIGSNYVNWYQQHEGSSPTTIIYRNDKRPDGVSDRFSGSIDRSSKSASLTISNLKTEDEADYFCQSYSSGFIFGGGTKLTVLGQPKAAPSVTLFPPSSEELQANKATLVCLISDFYPGAVTVAWKADSSPVKAGVETTTPSKQSNNKYAASSYLSLTPEQWKSHRSYSCQVTHEGSTVEKTVAPTECS
heavy 2: QVQLVESGGGLVQPGGSLRLSCSVSGIDLSSNPMIWVRQAPGKGLQYIGIIDTDGSTYYADWAKGRFTISKDSTTVYLQINSPRAEDTAVYYCARRLHGSSNGYYDDLWGQGTLVTVSSGGGGSGGGGSGGGGSGGGGSDGQMTQSPSSVSASVGDRVTITCQASQSIYSYLSWYQQKPGQRPKLLIYKASTLASGVPSRFSGSGSGTDFTLTISSVQPEDFATYYCQQGYTVTNVDKNTFGGGTKVEIKAAEPKSSDKTHTCPPCPAPEAAGGPSVFLFPPKPKDTLMISRTPEVTCVVVSVSHEDPEVKFNWYVDGVEVHNAKTKPREEQYNSTYRVVSVLTVLHQDWLNGKEYKCKVSNKALPAPIEKTISKAKGQPREPQVYVLPPSRDELTKNQVSLLCLVKGFYPSDIAVEWESNGQPENNYLTWPPVLDSDGSFFLYSKLTVDKSRWQQGNVFSCSVMHEALHNHYTQKSLSLSPG
notes: CD3 Fab with C-term Cldn18.2 scFv x Cldn18.2 scFv Fc with attenuated (KO) PD-1 attached to CD3 LC (N-term)

- Bmax [8]: 1640
- EC50 [8]: 0.87 nM
- Bmax [9]: 1660
- EC50 [9]: 0.48 nM
- Bmax [10]: 2070
- EC50 [10]: 1.29 nM
- binding result [11]: no binding
B4: v35777 (antibody, human IgG1, V domains shown)
VH: QSLEESGGRLVTPGTPLTLTCTVSGIDLSSNPMIWVRQAPGKGLQYIGIIDTDGSTYYASWAKGRFTGSKTSTTVDLKITSPTTEDTATYFCARRLHGSSNGYYDDLWGQGTLVTISS
VL: DGVMTQTPSSVSAAVGGTVTIKCQASQSIYSYLSWYQQKPGQRPKLLIYKASTLASGVPSRFKGSGSGTEFTLTISGVQCDDAATYYCQQGYTVTNVDKNTFGGGTEVVVK
notes: Rabbit variable regions on human IgG1 (constant region starts at alanine Kabat-114) and human C kappa (starts at arginine Kabat-108); also called parental rabbit chimeric; rabbit-human chimeric IgG1/kappa antibody construct
